Assay results published in patent EP1396542B1 (Genetics Institute, LLC, dated 2011).

B1: sPSL.T7 co-expressed with 3/4FT and PACE (PACE-cleaved soluble P-selectin ligand) (ligand, not shown: large carriers)
chain: QATEYEYLDYDFLPETEPPEMLRNSTDTTPLTGPGTPESTTVEPAARRSTGLDAGGAVTELTTELANMGNLSTDSAAMEIQTTQPAATEAQTTPLAATEAQTTRLTATEAQTTPLAATEAQTTPPAATEAQTTQPTGLEAQTTAPAAMEAQTTAPAAMEAQTTPPAAMEAQTTQTTAMEAQTTAPEATEAQTTQPTATEAQTTPLAAMEALSTEPSATEALSMEPTTKRGLFIPFSVSSVTHKGIPMAASNLSV
modifications: glycoprotein made in cells co-expressing 3/4FT
notes: also called PACE-cleaved P-selectin ligand; sPSL.T7 from the CP/PSL-T7 (R4.1) CHO-PACE line
B2: P-selectin ligand protein, full length, expressed on COS cells co-transfected with pMT21:PL85 and the 3/4FT gene (pEA.3/4FT) (ligand)
chain: QATEYEYLDYDFLPETEPPEMLRNSTDTTPLTGPGTPESTTVEPAARRSTGLDAGGAVTELTTELANMGNLSTDSAAMEIQTTQPAATEAQTTPLAATEAQTTRLTATEAQTTPLAATEAQTTPPAATEAQTTQPTGLEAQTTAPAAMEAQTTAPAAMEAQTTPPAAMEAQTTQTTAMEAQTTAPEATEAQTTQPTATEAQTTPLAAMEALSTEPSATEALSMEPTTKRGLFIPFSVSSVTHKGIPMAASNLSVNYPVGAPDHISVKQCLLAILILALVATIFFVCTVVLAVRLSRKGHMYPVRNYSPTEMVCISSLLPDGGEGPSATANGGLSKAKSPGLTPEPREDREGDDLTLHSFLP
modifications: glycoprotein made in cells co-expressing (α1,3/1,4) fucosyltransferase (3/4FT)
notes: also called PSL; protein encoded by pMT21:PL85

Tests used:
[1] = target: T1, P-selectin expressed on the surface of CHO cells (CHO:P-selectin cell line) (UniProt P16109 42-830, limits assumed); assay: conditioned medium coated onto plastic dishes, binding of CHO:P-selectin cells; reference is sPSL.T7 without PACE
T1 construct: whole, on cells
T1 sequence (looked up): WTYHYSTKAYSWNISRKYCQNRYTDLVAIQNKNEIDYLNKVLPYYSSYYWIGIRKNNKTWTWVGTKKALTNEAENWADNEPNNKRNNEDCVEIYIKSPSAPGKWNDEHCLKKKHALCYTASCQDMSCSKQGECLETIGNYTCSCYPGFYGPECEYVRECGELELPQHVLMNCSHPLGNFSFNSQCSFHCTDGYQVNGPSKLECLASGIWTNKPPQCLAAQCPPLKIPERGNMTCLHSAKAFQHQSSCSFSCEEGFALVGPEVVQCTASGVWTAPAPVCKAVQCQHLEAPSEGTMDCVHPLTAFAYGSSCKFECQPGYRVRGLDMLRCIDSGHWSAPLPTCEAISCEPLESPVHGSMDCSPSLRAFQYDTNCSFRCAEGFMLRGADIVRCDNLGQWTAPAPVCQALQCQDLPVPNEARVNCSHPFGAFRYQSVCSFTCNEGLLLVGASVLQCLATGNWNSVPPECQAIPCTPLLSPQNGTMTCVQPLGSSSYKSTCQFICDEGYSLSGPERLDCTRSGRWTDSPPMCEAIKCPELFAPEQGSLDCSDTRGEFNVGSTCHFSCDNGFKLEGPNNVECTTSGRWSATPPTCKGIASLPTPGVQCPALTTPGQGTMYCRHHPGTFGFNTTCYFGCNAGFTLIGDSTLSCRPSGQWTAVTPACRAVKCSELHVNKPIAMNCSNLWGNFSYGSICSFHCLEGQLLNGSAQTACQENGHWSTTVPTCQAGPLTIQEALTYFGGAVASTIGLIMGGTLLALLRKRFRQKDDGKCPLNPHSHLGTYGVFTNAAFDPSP

[2] = target: T1, P-selectin expressed on the surface of …; assay: adhesion of 3H-thymidine labeled CHO:P-selectin cells to transfected COS cells, scintillation counting

| Binder | fold increase in bound CHO:P-selectin cells against P-selectin ligand not co-expressed with PACE [1] [fold] | fold binding of CHO:P-selectin cells relative to COS mock cells [2] [fold] |
| --- | --- | --- |
| B1 | ~2 | – |
| B2 | – | ~5.4 |
